Data reported in US20260144882A1, “ANTI-NECTIN-4 ANTIBODY DRUG CONJUGATE AND USE THEREOF” (Bio-Thera Solutions, Ltd., priority 2022, published 2026).
Where a chain is given by its changes, count along the chain named. Blank lines part the entries; values can stand above or below the molecule they belong to.

Biological target: T1, hNectin-4-His (human Nectin-4 extracellular antigen) (Homo sapiens, UniProt Q96NY8)
T1 construct: made in house
T1 sequence (Q96NY8 with tags, fused parts or gaps): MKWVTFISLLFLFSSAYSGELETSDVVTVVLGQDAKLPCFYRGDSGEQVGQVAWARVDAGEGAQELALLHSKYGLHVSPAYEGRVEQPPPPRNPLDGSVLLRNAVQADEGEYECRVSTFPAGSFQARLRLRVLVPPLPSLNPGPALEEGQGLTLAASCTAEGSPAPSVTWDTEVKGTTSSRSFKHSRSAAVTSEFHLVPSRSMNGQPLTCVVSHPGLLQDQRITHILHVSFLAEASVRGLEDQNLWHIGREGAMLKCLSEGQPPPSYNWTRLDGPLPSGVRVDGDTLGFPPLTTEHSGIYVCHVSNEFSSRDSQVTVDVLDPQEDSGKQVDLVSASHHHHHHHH
Assay: SPR (BIAcore) affinity assay
Format: binding
Conditions: Table 13
Experimental: In this study, the affinity of the antibodies for the human Nectin-4 extracellular antigen was detected by surface plasmon resonance (SPR) technique (BIAcore: GE Healthcare, T200).
Capture was performed using a Protein A chip (Cat #29127556, GE Healthcare), and 5 µg/mL antibody dilutions (in HBS-EP+(10×): GE Healthcare, Cat #BR-1006-69, with a working concentration of 1×) were directed through the experimental flow channels (Fc2 and Fc4) at a flow rate of 10 μL/min for 10 s; then, the flow rate was adjusted to 30 μL/min, the hNectin-4-His dilutions at different concentrations (0 nM, 1.23 nM, 3.7 nM, 11.1 nM, 33.3 nM, and 100 nM) were sequentially added, and simultaneously directed through the surfaces of the experimental flow channels (Fc2 and Fc4) and reference flow channels (Fc1 and Fc3) with an association time of 120 s and a dissociation time of 180 s, and finally, the chip was regenerated in Glycine 1.5.

- ka: 471000 M⁻¹ s⁻¹
- kd: 0.00141 s⁻¹
B1: 1G8-1G3: VH SEQ ID NO: 98 (antibody, V domains shown)
VH: EVQLVESGGGLVQPGGSLRLSCAASGFNFGTYAMSWVRQAPGKGLEWVSRISGISAGTNYADSVKGRFTISRDNSKNTLYLQMNSLRAEDTAVYYCARQTEDRSYGYDLDYWGQGTLVTVSS

- ka: 665000 M⁻¹ s⁻¹
- kd: 0.00087 s⁻¹
B2: 1G8-1E10: VH SEQ ID NO: 90 (antibody, V domains shown)
VH: B1 VH with F27D, N28S, G30S, I54S, S55G, A56D, T58K, N59D

- ka: 742000 M⁻¹ s⁻¹
- kd: 0.00147 s⁻¹
B3: 1G8-2B3: VH SEQ ID NO: 109 (antibody, V domains shown)
VH: B1 VH with F27Y, G30T, Y32S, S52Y, G53Q, I54D, A56S, G57T, N59D
